Source: paper PMC11741006 (RSC Chemical Biology, 2025)
Starred links: 1 amine or outer side, 2 acyl side, 3 side chain; linkers in the order of their positions; H or OH if unused. Positions of bridges follow the written chain, without caps; N, C: chain ends. Non-standard residues stand in square brackets, D forms with d. *: point of attachment. FITC = O=C1OC2(c3ccc(O)cc3Oc3cc(O)ccc32)c2ccc(NC(=S)*)cc21; S7 = C[C@@](CCCCCC=[*:3])(N[*:1])C(=O)[*:2]; R8 = C=CCCCCCC[C@@](C)(N)C(=O)O; Cba = N[C@@H](CC1CCC1)C(=O)O; S5 = C=CCCC[C@](C)(N)C(=O)O; Ahx = NCCCCCC(=O)O

Experiments:
MDM2 (1–138) = molecular target: T1, MDM2 (1–138) (UniProt Q00987 1-138); assay: fluorescence polarisation; direct binding; 10 nM FITC-labelled peptide incubated with varying concentrations of protein (10 μM to 9 pM), FP read after 3 h; n = 3; settings: both partners purified
T1 construct: MDM2, residues 1-138; the methods may stand in the ESI; also called Mouse double minute 2 homolog
T1 sequence (Q00987 1-138): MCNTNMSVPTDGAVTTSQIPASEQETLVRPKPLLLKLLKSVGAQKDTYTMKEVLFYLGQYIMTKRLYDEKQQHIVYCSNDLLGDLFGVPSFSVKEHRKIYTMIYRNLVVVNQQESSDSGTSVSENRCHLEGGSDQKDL

MDMX (1–134) = molecular target: T2, MDMX (1–134) (UniProt O15151 1-134); assay: as above; settings: both partners purified
T2 construct: MDMX, residues 1-134; the methods may stand in the ESI; also called Mouse double minute X homolog
T2 sequence (looked up): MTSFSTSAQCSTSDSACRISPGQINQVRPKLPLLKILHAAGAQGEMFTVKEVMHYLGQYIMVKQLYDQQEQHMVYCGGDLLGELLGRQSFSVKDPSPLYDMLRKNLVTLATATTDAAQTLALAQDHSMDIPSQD

B1: 5FITC (peptide)
chain: {FITC-Ahx}-LTA[S7]EYWAQ[Cba][S7]SAA-NH2
modifications: staple 4-11
MDM2 (1–138)
  Kd: 3680 ± 151 nM
MDMX (1–134)
  Kd: 1120 ± 252 nM

B2: cis-2FITC (ATSP-7041) (peptide)
chain: {FITC-Ahx}-LTF[R8]EYWAQ[Cba][S5]SAA-NH2
modifications: staple 4-11; also: cis alkene isomer
MDMX (1–134)
  Kd: 8.42 ± 0.09 nM

B3: trans-3FITC (ATSP-7041) (peptide)
chain: {FITC-Ahx}-LTF[R8]EYWAQ[Cba][S5]SAA-NH2
modifications: staple 4-11; also: trans alkene isomer
MDMX (1–134)
  Kd: 7.86 ± 0.15 nM

B4: 4FITC (peptide)
chain: {FITC-Ahx}-LTF[S7]EYWAQ[Cba][S7]SAA-NH2
modifications: bridge 4-11; not fully specified (bridges)
MDM2 (1–138)
  Kd: 1.39 ± 0.08 nM
MDMX (1–134)
  Kd: 203 ± 54 nM
